Assay results taken from patent US20180094248A1 (ARIZONA BOARD OF REGENTS ON BEHALF OF ARIZONA STATE …, published 2018).

T1: Receptor Interacting Protein Kinase-1 (RIPK1) (human, UniProt Q13546 1-671)
T1 construct: Endogenous protein in human AD and CTL brain extracts (TBS/Triton-X100) and in human cell lysates; also called RIP1
T1 sequence (looked up): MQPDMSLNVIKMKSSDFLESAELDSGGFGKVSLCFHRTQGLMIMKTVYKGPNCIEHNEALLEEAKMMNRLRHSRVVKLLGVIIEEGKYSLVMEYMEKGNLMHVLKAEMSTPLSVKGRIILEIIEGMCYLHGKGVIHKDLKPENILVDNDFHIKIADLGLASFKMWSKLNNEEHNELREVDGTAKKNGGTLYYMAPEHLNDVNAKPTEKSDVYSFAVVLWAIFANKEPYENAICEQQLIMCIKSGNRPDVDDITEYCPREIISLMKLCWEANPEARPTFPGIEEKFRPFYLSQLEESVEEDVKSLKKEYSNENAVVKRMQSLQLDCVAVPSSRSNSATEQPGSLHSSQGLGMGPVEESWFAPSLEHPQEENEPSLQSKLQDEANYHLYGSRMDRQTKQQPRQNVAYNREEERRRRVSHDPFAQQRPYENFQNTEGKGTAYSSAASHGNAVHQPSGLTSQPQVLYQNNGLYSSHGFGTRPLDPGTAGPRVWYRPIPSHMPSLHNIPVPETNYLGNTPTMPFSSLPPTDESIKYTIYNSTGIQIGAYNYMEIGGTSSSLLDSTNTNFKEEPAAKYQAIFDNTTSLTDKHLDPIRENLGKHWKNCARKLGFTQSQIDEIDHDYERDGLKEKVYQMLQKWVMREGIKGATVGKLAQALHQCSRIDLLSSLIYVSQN

B1: Mixed Lineage Kinase Domain-Like (MLKL) (other)
chain: MENLKHIITLGQVIHKRCEEMKYCKKQCRRLGHRVLGLIKPLEMLQDQGKRSVPSEKLTTAMNRFKAALEEANGEIEKFSNRSNICRFLTASQDKILFKDVNRKLSDVWKELSLLLQVEQRMPVSPISQGASWAQEDQQDADEDRRAFQMLRRDNEKIEASLRRLEINMKEIKETLRQYLPPKCMQEIPQEQIKEIKKEQLSGSPWILLRENEVSTLYKGEYHRAPVAIKVFKKLQAGSIAIVRQTFNKEIKTMKKFESPNILRIFGICIDETVTPPQFSIVMEYCELGTLRELLDREKDLTLGKRMVLVLGAARGLYRLHHSEAPELHGKIRSSNFLVTQGYQVKLAGFELRKTQTSMSLGTTREKTDRVKSTAYLSPQELEDVFYQYDVKSEIYSFGIVLWEIATGDIPFQGCNSEKIRKLVAVKRQQEPLGEDCPSELREIIDECRAHDPSVRPSVDEILKKLSTFSK
notes: Endogenous protein in human brain extracts and HAP1 cells
B2: Receptor Interacting Protein Kinase-3 (RIPK3) (enzyme, human, UniProt Q9Y572 1-518, looked up)
chain: MSCVKLWPSGAPAPLVSIEELENQELVGKGGFGTVFRAQHRKWGYDVAVKIVNSKAISREVKAMASLDNEFVLRLEGVIEKVNWDQDPKPALVTKFMENGSLSGLLQSQCPRPWPLLCRLLKEVVLGMFYLHDQNPVLLHRDLKPSNVLLDPELHVKLADFGLSTFQGGSQSGTGSGEPGGTLGYLAPELFVNVNRKASTASDVYSFGILMWAVLAGREVELPTEPSLVYEAVCNRQNRPSLAELPQAGPETPGLEGLKELMQLCWSSEPKDRPSFQECLPKTDEVFQMVENNMNAAVSTVKDFLSQLRSSNRRFSIPESGQGGTEMDGFRRTIENQHSRNDVMVSEWLNKLNLEEPPSSVPKKCPSLTKRSRAQEEQVPQAWTAGTSSDSMAQPPQTPETSTFRNQMPSPTSTGTPSPGPRGNQGAERQGMNWSCRTPEPNPVTGRPLVNIYNCSGVQVGDNNYLTMQQTTALPTWGLAPSGKGRGLQHPPPVGSQEGPKDPEAWSRPQGWYNHSGK
notes: Endogenous protein in human brain sections

How the values were obtained:
[1] = molecular target: B2; assay: confocal co-localization in co-labeled human brain sections
Protocol: (§1) The tissue was then washed in water and let dry overnight. The next day the slides were cleared in xylene and coverslipped with DPX mounting solution (Sigma-Aldrich). The immunohistochemistry on the brain sections from APP/PS1 was conducted following a similar protocol as we previously detailed 49. In this case, sections were stained with an anti-A(342 specific antibody (1:200; Millipore, catalog number AB5078P) and with a neuronal marker NeuN (1:200, Millipore, catalog number MAB377), Iba1 (Wako), GFAP (Cell Signaling) and GFP (1:200, Thermo Fisher Scientific, catalog number A-11122).
(§2) Confocal microscopy and image analysis: All images were acquired at a resolution size of x=1024, y=1024, and z=1, using a 63× oil immersion objective and zoom of 1.5 using the Leica DM 2500 confocal microscope. Image fields within the x-y plane of the tissue section were randomly selected. For each image acquired, channels were split to allow separate pixel quantification in both the 561 nm and 635 nm channels. To quantify total protein in each image field, channels were split and the integrated signal density of each channel was quantified using ImageJ software. Human brain tissue sections immunostained for RIPK1, RIPK3, MLKL, and pMLKL were analyzed to measure absolute protein levels, as well as co-localization between RIPK1 and RIPK3, RIPK3 and MLKL, and RIPK1 and MLKL. […]

[2] = molecular target: T1, Receptor Interacting Protein Kinase-1 …; assay: as above
Protocol: as §1, §2

binding result [1]	binding result [2]	Binder
binds	–	B1
–	binds	B2
